The record followed here is US20250109203A1.

The target in this assay is human γδ TCR (Vγ9Vδ2) on human Vδ2+ γδ T cells (human) (UniProt A0JD36). In words: flow cytometry on expanded human Vδ2+ γδ T cells, nonlinear fit. (In general: Flow cytometry measures light scatter and fluorescence of single cells or particles in a stream.)

Numbering of substitutions follows the chain as printed.

B1: hu1D7v37 VHH-hIgG1 Fc-NNT (monomeric) (VHH)
VHH: EVQLLESGGGEVQPGGSLRLSCVASRGKISQYRMGWYRQAPGKELEWVAHISNTGDAAEYVDSVKGRFTISRDSTKNAVYLQMSSLRAEDTAVYKCNTVEDILAWGQGTLVTVKP
As for B1, the Kd (in general, the equilibrium constant for the complex coming apart) was 17.4 nM.

B2: hu1D7v4 VHH-hIgG1 Fc-NNT (monomeric) (VHH)
VHH: B1 VHH with G27F, E44G, T98S
In turn, B2 displayed a Kd of 8860 nM.

B3: hu1D7v96 VHH-hIgG1 Fc-NNT (monomeric) (VHH)
VHH: B1 VHH with L45R, W47L, D62Y, G66D, V79L, T98S, K114R
The molecule B3 registered a Kd of 191 nM.

B4: hu1D7v73 VHH-hIgG1 Fc-NNT (monomeric) (VHH)
VHH: B1 VHH with L45R, W47L, S63I, G66D, V79L, T98S, K114R
As for B4, the dissociation constant (Kd) worked out at 180 nM.

B5: hu1D7v90 VHH-hIgG1 Fc-NNT (monomeric) (VHH)
VHH: B1 VHH with L45R, W47L, G66D, V79L, N97S, T98G, K114R
Consider B5, for which the Kd came out at 95.6 nM. Against the preceding molecule, the Kd is about 1.9-fold lower.

B6: hu1D7v93 VHH-hIgG1 Fc-NNT (monomeric) (VHH)
VHH: B1 VHH with L45R, W47L, G66D, V79L, T98Q, K114R
As for B6, the dissociation constant (Kd) turned out to be 1090 nM.

B7: hu1D7v66 VHH-hIgG1 Fc-NNT (monomeric) (VHH)
VHH: B1 VHH with L45R, W47L, S63T, G66D, V79L, T98S, K114R
Turning to B7, the Kd was 93.3 nM.

B8: hu1D7v91 VHH-hIgG1 Fc-NNT (monomeric) (VHH)
VHH: B1 VHH with L45R, W47L, G66D, V79L, N97G, T98G, K114R
The molecule B8 returned a Kd of 154 nM. This Kd is about 1.7-fold higher than that of the molecule before.

B9: hu1D7v101 VHH-hIgG1 Fc-NNT (monomeric) (VHH)
VHH: B1 VHH with L45R, W47L, G66D, V79L, N97A, T98A, K114R
Molecule B9 came in with a Kd of 270 nM.

B10: hu1D7v92 VHH-hIgG1 Fc-NNT (monomeric) (VHH)
VHH: B1 VHH with L45R, W47L, G66D, V79L, N97Q, T98N, K114R
In turn, B10 displayed a Kd of 104 nM.

B11: hu1D7v88 VHH-hIgG1 Fc-NNT (monomeric) (VHH)
VHH: B1 VHH with L45R, W47L, D62Q, S63G, G66D, V79L, T98S, K114R
B11 showed a Kd of 61.5 nM.

B12: hu1D7v61 VHH-hIgG1 Fc-NNT (monomeric) (VHH)
VHH: B1 VHH with L45R, W47L, G66D, V79L, K114R
For B12, the Kd was 41.3 nM.

B13: hu1D7v78 VHH-hIgG1 Fc-NNT (monomeric) (VHH)
VHH: B1 VHH with L45R, W47L, G66D, V79L, T98A, K114R
As for B13, the Kd worked out at 481 nM.

B14: hu1D7v84 VHH-hIgG1 Fc-NNT (monomeric) (VHH)
VHH: B1 VHH with L45R, W47L, D62E, S63G, G66D, V79L, T98S, K114R
With B14, the Kd worked out at 43.6 nM. Against the preceding molecule, the Kd is about 11-fold lower.

B15: hu1D7v80 VHH-hIgG1 Fc-NNT (monomeric) (VHH)
VHH: B1 VHH with L45R, W47L, G66D, V79L, T98V, K114R
B15 came in with a Kd of 646 nM.

B16: hu1D7v67 VHH-hIgG1 Fc-NNT (monomeric) (VHH)
VHH: B1 VHH with L45R, W47L, G66D, V79L, N97Q, T98S, K114R
Take B16: the Kd was 1740 nM.

B17: hu1D7v65 VHH-hIgG1 Fc-NNT (monomeric) (VHH)
VHH: B1 VHH with L45R, W47L, S63A, G66D, V79L, T98S, K114R
The molecule B17 had a Kd of 347 nM.

B18: hu1D7v63 VHH-hIgG1 Fc-NNT (monomeric) (VHH)
VHH: B1 VHH with V23A, L45R, W47L, D62A, S63P, G66D, S74N, T75A, V79L, K114R
B18 displayed a Kd of 14.7 nM.

B19: hu1D7v75 VHH-hIgG1 Fc-NNT (monomeric) (VHH)
VHH: B1 VHH with L45R, W47L, D62G, G66D, V79L, T98S, K114R
Molecule B19 had a Kd of 118 nM.

B20: hu1D7v94 VHH-hIgG1 Fc-NNT (monomeric) (VHH)
VHH: B1 VHH with L45R, W47L, G66D, V79L, N97S, T98N, K114R
The molecule B20 showed a dissociation constant Kd of 752 nM. This Kd is about 6.4-fold higher than that of the molecule before.

B21: hu1D7v89 VHH-hIgG1 Fc-NNT (monomeric) (VHH)
VHH: B1 VHH with L45R, W47L, G66D, V79L, N97Q, T98G, K114R
Molecule B21 had a Kd of 1950 nM.

B22: hu1D7v69 VHH-hIgG1 Fc-NNT (monomeric) (VHH)
VHH: B1 VHH with L45R, W47L, G66D, V79L, N97T, T98S, K114R
B22 yielded a Kd of 1010 nM.

B23: hu1D7v8 VHH-hIgG1 Fc-NNT (monomeric) (VHH)
VHH: B1 VHH with R33A, E44G, T98S
B23 displayed a Kd of 7870 nM.

B24: hu1D7v81 VHH-hIgG1 Fc-NNT (monomeric) (VHH)
VHH: B1 VHH with L45R, W47L, G66D, V79L, N97A, T98S, K114R
B24 showed a Kd of 843 nM.

B25: hu1D7v58 VHH-hIgG1 Fc-NNT (monomeric) (VHH)
VHH: B1 VHH with L45R, W47L, G66D, V79L, T98S, K114R
Molecule B25 had a Kd of 8.07 nM. Compared with the last molecule, the Kd is about 100-fold lower.

B26: hu1D7v38 VHH-hIgG1 Fc-NNT (monomeric) (VHH)
VHH: B1 VHH with T98V
B26 came in with a Kd of 20200 nM.

B27: hu1D7v79 VHH-hIgG1 Fc-NNT (monomeric) (VHH)
VHH: B1 VHH with L45R, W47L, G66D, V79L, T98L, K114R
In turn, B27 registered a dissociation constant Kd of 497 nM.

B28: hu1D7v76 VHH-hIgG1 Fc-NNT (monomeric) (VHH)
VHH: B1 VHH with L45R, W47L, D62V, G66D, V79L, T98S, K114R
Turning to B28, the Kd came to 125 nM.

B29: hu1D7v102 VHH-hIgG1 Fc-NNT (monomeric) (VHH)
VHH: B1 VHH with G66D, V79L, K114R
Molecule B29 came in with a Kd of 18 nM. This Kd is about 6.9-fold lower than that of the molecule before.

B30: hu1D7v39 VHH-hIgG1 Fc-NNT (monomeric) (VHH)
VHH: B1 VHH with T98S, K114R
Molecule B30 registered a Kd of 7.99 nM.

B31: hu1D7v71 VHH-hIgG1 Fc-NNT (monomeric) (VHH)
VHH: B1 VHH with L45R, W47L, S63V, G66D, V79L, T98S, K114R
Consider B31, for which the Kd is 135 nM.

B32: hu1D7v98 VHH-hIgG1 Fc-NNT (monomeric) (VHH)
VHH: B1 VHH with L45R, W47L, D62L, G66D, V79L, T98S, K114R
In turn, B32 yielded a dissociation constant (Kd) of 114 nM.

B33: hu1D7v60 VHH-hIgG1 Fc-NNT (monomeric) (VHH)
VHH: B1 VHH with L45R, W47L, G66D, S74N, T75A, V79L, T98S, K114R
For the molecule B33, the Kd was 9.67 nM.

B34: hu1D7v74 VHH-hIgG1 Fc-NNT (monomeric) (VHH)
VHH: B1 VHH with L45R, W47L, D62A, G66D, V79L, T98S, K114R
As for B34, the Kd stood at 60.4 nM.

B35: hu1D7v87 VHH-hIgG1 Fc-NNT (monomeric) (VHH)
VHH: B1 VHH with L45R, W47L, D62Q, G66D, V79L, T98S, K114R
Consider B35, for which the Kd was 44.9 nM. The Kd values of the last two molecules are within 1.5-fold of each other.

B36: hu1D7v70 VHH-hIgG1 Fc-NNT (monomeric) (VHH)
VHH: B1 VHH with L45R, W47L, G66D, V79L, N97E, T98S, K114R
For the molecule B36, the Kd came to 441 nM.

B37: hu1D7v6 VHH-hIgG1 Fc-NNT (monomeric) (VHH)
VHH: B1 VHH with I29F, E44G, T98S
Consider B37, for which the Kd was 35.1 nM.

B38: hu1D7v83 VHH-hIgG1 Fc-NNT (monomeric) (VHH)
VHH: B1 VHH with L45R, W47L, S63G, G66D, V79L, T98S, K114R
Molecule B38 came in with a Kd of 36.3 nM. The Kd values of the last two molecules are within 1.5-fold of each other.

B39: hu1D7v57 VHH-hIgG1 Fc-NNT (monomeric) (VHH)
VHH: B1 VHH with L45R, W47L, V79L, T98S, K114R
In the case of B39, the Kd came to 10.5 nM. Compared with the last molecule, the Kd is about 3.5-fold lower.

B40: hu1D7v59 VHH-hIgG1 Fc-NNT (monomeric) (VHH)
VHH: B1 VHH with L45R, W47L, D62A, S63P, G66D, V79L, T98S, K114R
As for B40, the dissociation constant Kd is 23.8 nM.

B41: hu1D7v100 VHH-hIgG1 Fc-NNT (monomeric) (VHH)
VHH: B1 VHH with L45R, W47L, G66D, V79L, K95Y, T98S, K114R
The molecule B41 gave a Kd of 61.9 nM.

B42: hu1D7v72 VHH-hIgG1 Fc-NNT (monomeric) (VHH)
VHH: B1 VHH with L45R, W47L, S63L, G66D, V79L, T98S, K114R
Molecule B42 yielded a Kd of 182 nM.
